Earlier results in paper PMC6935268.

Biological target: CD80 (Homo sapiens) (UniProt P33681)
Chain of UniProt P33681 (P33681 35-242): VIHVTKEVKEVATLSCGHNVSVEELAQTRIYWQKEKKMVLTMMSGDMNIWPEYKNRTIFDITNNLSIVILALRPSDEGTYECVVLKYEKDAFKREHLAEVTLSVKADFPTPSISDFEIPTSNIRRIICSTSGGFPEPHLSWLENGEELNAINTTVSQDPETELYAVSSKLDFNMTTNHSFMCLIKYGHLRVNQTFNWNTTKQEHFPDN

Kd: 17.8 µM
Substance: PD-L1 (from UniProt Q9NZQ7)
